Results as given in a protein production outcome set (Wang et al. 2014).

Test: label from the status in PepcDB records

Sequence | protein production
MNRIKAVGYENNELKEKAQLLADQLNLQLDQNADTCLFVTPEKLTLKIRNFSLMFADFSAMTWSKRRGEGKRQGLIRACKPTKGIKILDATAGWGKDAAILATFGADVVMLERHPVMAALLADALSRRNEADIQKMCLSLIASDAISFLHSLQEKDYPDIIYIDPMHPERNKSALVKKEMQVLQQLIGTDHDAMELIELSLSHVKSRVVVKWPQKVKPLLPPDASIDGKTVRFDIYMAQFSSN | failed
MNSIKNVPARVLSRRPGHSLEAEREQFDKTQAISISKAINTQEAPVKEKHARRIILGTHHEKGAFTFWSYAIGLPLPSSSILSWKFCHVLHKVLRDGHPNVLHDCQRYRSNIREIGDLWGHLHDRYGQLVNVYTKLLLTKISFHLKHPQFPAGLEVTDEVLEKAAGTDVNNIFQLTVEMFDYMDCELKLSESVFRQLNTAIAVSQMSSGQCRLAPLIQVIQDCSHLYHYTVKLLFKLHSCLPADTLQGHRDRFHEQFHSLRNFFRRASDMLYFKRLIQIPRLPEGPPNFLRASALAEHIKPVVVIPEEAPEDEEPENLIEISTGPPAGEPVVVADLFDQTFGPPNGSVKDDRDLQIESLKREVEMLRSELEKIKLEAQRYIAQLKSQVNALEGELEEQRKQKQKALVDNEQLRHELAQLRAAQLEGERSQGLREEAERKASATEARYNKLKEKHSELVHVHAELLRKNADTAKQLTVTQQSQEEVARVKEQLAFQVEQVKRESELKLEEKSDQLEKLKRELEAKAGELARAQEALSHTEQSKSELSSRLDTLSAEKDALSGAVRQREADLLAAQSLVRETEAALSREQQRSSQEQGELQGRLAERESQEQGLRQRLLDEQFAVLRGAAAEAAGILQDAVSKLDDPLHLRCTSSPDYLVSRAQEALDAVSTLEEGHAQYLTSLADASALVAALTRFSHLAADTIINGGATSHLAPTDPADRLIDTCRECGARALELMGQLQDQQALRHMQASLVRTPLQGILQLGQELKPKSLDVRQEELGAVVDKEMAATSAAIEDAVRRIEDMMNQARHASSGVKLEVNERILNSCTDLMKAIRLLVTTSTSLQKEIVESGRGAATQQEFYAKNSRWTEGLISASKAVGWGATQLVEAADKVVLHTGKYEELIVCSHEIAASTAQLVAASKVKANKHSPHLSRLQECSRTVNERAANVVASTKSGQEQIEDRDTMDFSGLSLIKLKKQEMETQVRVLELEKTLEAERMRLGELRKQHYVLAGASGSPGEEVAIRPSTAPRSVTTKKPPLAQKPSVAPRQDHQLDKKDGIYPAQLVNY | not failed
MCAMSQEHQNPTPLPQVSDMAPVNPPKNQRYPRAVDLSLIECHCCGLLNQVDSDHSEQAHSRHCIRCHSPLHVRKPRSLDRTLALVIAASILYIPANVLPMTMTDSLLGRQQDTIMSGVIYFWQNSDYLVAVVIFMASIFIPMLKLIILCFLLIAVRMQESSKWHFLPEHCALLYRIVEFVGRWSMIDVFVVALLTALIQIQSLATILAGPGAVAFGAVVVLTMFASLSFDPRIIWDNYYKAQAKQHDPLQTIDNTSSISVEQ | failed
MTNITASIVLYNNPIDQIRQCIESMQADTRVHVLLVDNSEKKGGYTGLAADNVEILDAPGNVGFGRGHNLVLGRLAALRSEVHLVVNPDIVVSAGCVQAVADVLRQRKDVTLVGPRVVSPDGALYRSCKLLPTPWNLFARRFAPRQLYAAADARYELEAFGYDRELRLHNLSGAFLAFRSEAFTALGGFDPRYFMYLEDVDICRRAAGLGAVIFLPQAEVVHEHGKGSYRSWRLLREHMRSAILYFNRFGWFVDAERRLLNRETLARVNDMRSVVLEHHHHHH | failed
MNEFEDLLNSVSEVNPGDVVTAEVLTVDNGQANVVIEGTGVEGVLTLRELTNDRDADINDFVKAGDTVEVLVLRQVVGKDTDTVTFLVSKKRLEARKAWDKLVGREGEVVTVKGTRAVKGGLSVEFEGLRGFIPASMIDTRFVRNTEKFVGQEFDAKIKEVDAAENRFILSRREVIEEAAKEARAEVFSKISEGAVVTGTVARLTSFGAFIDLGGVDGLVHVTELSHERNVSPKSVVSVGEEVEVKVLSIDEEAGRVSLSLKATTPGPWDGVEQKLAQGDVVEGKVKRLTDFGAFVEVLPGIDGLVHISQISHKRVENPKDVLSVGQEVTVKVLEVNAADERVSLSIKALEERPAQAEGDNKEEKRQSRPRRPKRESRRDYELPETQTGFSMADLFGDIEL | failed
MSPVINHPVLGPAAPSLGWVPAPRYWLRRQRVLDHMRTLERGRLLEIGCGGGALLADLSRLGFDCRALETSPAARVVARAMNADTEGDKIVETAPADWRGSFDVVAAFEVLEHIDDDVGALRDWRDWLVDGGHILISVPADPRKFNAADEWAGHFRRYDKEDLHKVLKQAGFSVVSSETYGYPLANFLEYFRASAHQLMRKQWAHRSRDDATAQSGVNRSLDSKVWPLYSSALGVRALRLADSLQKRFRDNGRGNGLLVIGRRI | failed
MRENSTKPPQPHISEPADVAESRFISVAIPTFRRPDTIRRAIDSVLHQDFSNWELIVSDDEGPDGQTWAMLTDYARADPRIRIVENRRGRGQVENTNNVMLACRGSWIKLLHDDDWLAPKALGTFAQVAQQYPSAAFITCATNRVEDDRVKLRSARPGKKHVTVCSSQQTLKDLYLVRTTRSFGIIPSSLLVNSIVVQNGCLMRTYKSITAGVDQLFFIDLARHGDMVMIEDGLIFYDATNHSSVTASTTFDDVDRETIDLKHLTWSLIEDKHELPDPETIAGALQVARLRSRFRHQPWGSTIRHALQIFHPSVTKAVNQDIFARVQAVLRRRLRRTNW | failed
MSEILRQPSVLLFLTLAVYALAIIVRTRTGNIFCNPVLVSTIVLIAYLKILGIDYAVYHNAAQFIDFRLKPAVVVLAVPLYQNRRKIFNQWLPVIVSQLAGSVTGIVTGMYFAKWLGAEREVVLPLASKSVTNPIAIEITRSIGGIPAITAATVIIAGLVGQIAGYKMLKNTVVMPSSVGMSLGTASHAMGIAASLERSRRMAAYAGMGLTFNGVLTALIAPLLIPVLGF | failed
MNKLILISGLMLFSFFFGAGNLIFPPMLGYTAQENMWVSMTGFAITGILLPYITVIVVAYMNGGVESIGNKVHPIFGTVFAICIYLSIGALYGIPRAANVAYEIGTNHVLPVHNHFTLIIFSLIFFLVVYLIALYPNRIIDNLGKYLTPILIIIIAVLCILVIINPEGSIGQASGEYAQTPIVSGILEGYFTMDLVAALAFSVVIVQMFKMSGVNDHKTLVKNVIKSGLISAILLLIIYFALAYVGATTSHEGFKDGTGILTFNSLRVFGSIGNLLFGVIVILACLTTCIGLVNACAAFAMKKLPKISYKMFVLIFSLLGFLVSTLGLELILQIAVPLLTFIYPTSIVLVLISLVSIFIPFEMKYAFILPTLMTLFISLLQIFNDFNLFQPLISLYKVLPLSDIQLSWLLPFIILLFIGLIIDYFLKNKTVSTS | failed
MNENHLLDLEEQKTDLGRVEISPEVIEVIAGIAASEVEGVATMRGNFAAGVAEKLGYKNHGKGVKVDLNDEGIIVDVSVIILYGVSVPEVAKKIQQNIKQALQTMTAIELQSINVHIVGVHFEAVDGEEETKLEHHHHHH | failed
MQYVMSIIGILVVLGLCFALSNNKSKINFRAIAIMIGFQILIGWFMFGTKIGQQIIIFIGKVFNKLIKLGTTGVDFLFNGIQRDFVFFLNVLLIIVFFSALLSIFSYLGVLPFIVRVVGGAISKITGLPRVESFHAVNSVFFGSSEALIVIKNDLQHFNKNRMFIICCSAMSSVSASVTASYVMMLDAKYVLAALPLNLFSSLIVCSLLTPVDTKKEDEVIQKFDRTLFGDSFIGAMINGALDGLKVAGIVAALMIAFIGVMEVVNYVISAASGAMGHAVTLQQIFGYVLAPFAFLMGIPAQDIIPAGGIMGTKIVLNEFVAILDLKGVAATLSPRTVGIVTVFLISFASISQIGAIVGTIRALSEKQGSVVSKFGWKMLFASTLASILSATIAGLFI | failed
MAYATGITFASRSILPICSRTFLSPLRVASLLVFPEKSSATFFRRVQVPHLFSTSTTTLFSSVKCSIHSTSSPETENQAVFRPNVVDILEERGLLESITSENLRSACSDPKVAPLRVYCGFDPTAESLHLGNLLGIIVLSWFQRCGHQAVGLIGGATGRVGDPSGKSLERPELDADTLEKNIAGITKIIIKILGSNPSPGGSYVIFNNYDWWKDMTMLDFLNKVGRFARVGTMMAKESVKKRLESEQGMSYTEFTYQLLQAYDFLHLFKNEGINVQIGGSDQWGNITAGTDLIRKILQAEEAAYGLTFPLLLKNDGTKFGKSEDGAIWLSPSMLSPYKFYQYFFSVPDVDVIRFLKTLTFLSLDEIKILEDQMSKPGYVPNTAQIKLAEEVTRFVHGEEGLKEAIKATEALRPGAETKLDWNLIERIAEDIPSCSLPIDRVSGLSIVDLSVSAGLFESKSAARRMLKQGGFYMNNERVDDENKRVDEEDIVEGRGLVLSAGKKNKVVVRIS | failed
MKLATFDDGSRDGRLLVVARDLGHAVDASDIATSLQVALENWPQVEARLQALYQQLNDDAVAGAFALDLARLAAPLPRASQWLDGSCFLSHGALMQKAFNLDPIEGVEHTPLIYQGASDDFLGPLADIPLPSEAHGIDFEGEFAVLLDDVPMGCPAEQALQHVRLILQLNDVSLRALAPREMKTGFGFLQAKPASSFAPVAVTPDELGEAWRDGRVHLPLHVHWNGEWFGHPHGGAMHFGFHQLIAHAALTRRLSAGTLLGSGTVSNAERSVGSACIAERRAIETIACGAPRTAFMRFGDRVRMEARGPEGEVLFGAIDQRVVRGGWPCE | failed
MIFVPIIGWLALFGYGVRLVNEFIEGRYEGPIKLDFMEDLKFGFMVFLKSLPFYIIYIIILFAAMYVSEGLGNIISLLLGFFVVPMLAVNFFRKQTVESFFEFSVLNVVRDNLGEYIITVLKQYALVIIFMVLSIVLVGIPGMLFTNSIFVANMYGRLVERKAEASL | failed
MIEDKFMRVLLMFDVPTKSKKEQKLASKFRNNLIKLGYFMLQFSVYMRICKGLSSAKSSIENVKKILPPYGNVRALIITEKQFDKMELLLGGIVFNEKVNNETNLTLFDIDSHGEFKYKNSNNEEIQINKKQEKYHQQNLFEFLEHHHHHH | failed
MNLNNIRSSMTESTKSKDESMRSHLVKPGSVYDGIEPGELGETTESVQDRVRQLESRNSFLEEQCSQIESEKRYLENQKIKYEREIRKLQSELDRMKTSPLIIGTVIDVIKNDRIIVRSSNGPQFLVNVSQYIDEKKLLPGAKVALNQHTLAIAEVIPSTEEPFVAAMEVIESVEVDYDQIGGLDEQIQELQEAVELPLTSPERFARIGIEPPKGVLLYGLPGTGKTLLAKAVAHRTNATFIRVVGSELVQKYIGDGSKLVREIFEMARKKAPSIIFIDELDSIAARRLNETTGADREVQRTLMQLLAEMDGFDKRKNIRIIAATNRPDVLDPAILRPGRFDRLVHVPMPGIEARGKILKIHCEKMTLAEDIDFKKLAKATEGMSGADLKAIATEAGMFAVRRDKELVEMEEFLEAVEKVSMAADTQKMMPSNLPETMFV | failed
MKVLETATQVLEWTAHDTQLLVVAALGIALIVVLIAKLKLHPFLALVLGSAFVGLASGVELGKVITNFEDGVGGVLKEVGLLIALGAMLGKLLADSGGANRVVDTLLAKASGNKLVWMITLVAVIIGLPMFFEIGLVLLLPVIVLVTQRSKMKLMRIAIPALAGLSVLHGLVPPHPGPLIAISAVKAELGTTLGLGILVAIPTVIICGPLFSRLAARWVPVDAPAVAGGIDTQHAADLSEVKRQPSFLVTLLTIIFPVVLMLLKALGGIIWPNPETAPAIRIFFDFVGQPLVAMTLAVLLAIVTFGYAVGFTGSRITAKLGESLGPIAAILLIVGAGGGFKQTLIGAGVGDAVKKWAEGANMSVLVLGFIVAVALRLATGSATVATVTAAGIVAPLASSLSPTHAALLALAIGAGSLFLSHVNDAGFWLVKELFGLTVGQTFKTWSVMETLISVVGFGFVMLLSLVL | failed
MEQGMSKRILVPVAHGSEEMETVIIVDTLVRAGFQVTMAAVGDKLQVQGSRGVWLTAEQTLEACSAEAFDALALPGGVGGAQAFADSTALLALIDAFSQQGKLVAAICATPALVFAKQQKFVGARMTCHPNFFDHIPSERLSRQRVCYYATQHLLTSQGPGTALEFALAMIALLAGVELAQHVAAPMVLHPQQLTELSGFIDAQS | not failed
